Experiments:
APOBEC3A (A3A) wild-type [1] = target: T1, APOBEC3A (A3A) wild-type (Homo sapiens, UniProt P31941 1-199); assay: NMR titration
APOBEC3A (A3A) wild-type [2] = target: T1, APOBEC3A (A3A) wild-type; assay: NMR titration; remark: listed apart in the source
APOBEC3A (A3A) wild-type [3] = target: T1, APOBEC3A (A3A) wild-type; assay: EMSA
APOBEC3A E72Q = APOBEC3A E72Q (Homo sapiens, UniProt P31941 1-199, E72Q); assay: NMR titration
Sequence of APOBEC3A E72Q (P31941 whole entry E72Q): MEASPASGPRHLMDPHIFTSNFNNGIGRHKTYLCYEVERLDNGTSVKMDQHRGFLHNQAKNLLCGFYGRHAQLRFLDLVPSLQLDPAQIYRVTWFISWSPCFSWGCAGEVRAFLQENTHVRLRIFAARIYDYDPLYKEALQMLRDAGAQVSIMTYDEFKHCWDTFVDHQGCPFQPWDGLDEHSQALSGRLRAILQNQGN

T1 sequence (P31941 whole entry): as the sequence (P31941 whole entry E72Q) above, with Q72E counted along it

B1: ATTTUATTT (9-nt product) (ssDNA)
DNA: ATTTUATTT
modifications: dU at position 5
Kd (APOBEC3A (A3A) wild-type [1]): 58 ± 8 µM

B2: AAACCAAAA (value is for dU-containing product) (ssDNA)
DNA: AAACCAAAA
modifications: C deaminated to dU during titration
Kd (APOBEC3A (A3A) wild-type [2]): 94 ± 11 µM

B3: 40-nt ssDNA JL895 (ssDNA)
DNA: ATTATTATTATTATTATTATTTCATTTATTTATTTATTTA
Kd (APOBEC3A (A3A) wild-type [3]): ~80 µM

B4: ATTATTTCATTTATT (15-nt substrate) (ssDNA)
DNA: ATTATTTCATTTATT
Kd (APOBEC3A E72Q): 55 ± 11 µM

B5: TCATTT (6-nt; value is for dU product) (ssDNA)
DNA: TCATTT
modifications: C at position 2 converted to dU during titration
Kd (APOBEC3A (A3A) wild-type [2]): 194 ± 18 µM

B6: AAACCCAAA (value is for dU-containing product) (ssDNA)
DNA: AAACCCAAA
modifications: C deaminated to dU during titration
Kd (APOBEC3A (A3A) wild-type [2]): 91 ± 15 µM

B7: 40-nt ssRNA JL931 (ssRNA)
RNA: AUUAUUAUUAUUAUUAUUAUUUCAUUUAUUUAUUUAUUUA
apparent K (half saturation) (APOBEC3A (A3A) wild-type [3]): ~40 µM

B8: AAACAAAAA (value is for dU-containing product) (ssDNA)
DNA: AAACAAAAA
modifications: C deaminated to dU during titration
Kd (APOBEC3A (A3A) wild-type [2]): 161 ± 19 µM

B9: ATTATTTUATTTATT (15-nt product) (ssDNA)
DNA: ATTATTTUATTTATT
modifications: dU at position 8
Kd (APOBEC3A (A3A) wild-type [1]): 57 ± 11 µM

Source: paper PMC3674325
